# Measured values published in US20150299277A1, “AGENT FOR TREATING OR PREVENTING SYSTEMIC INFLAMMATORY RESPONSE SYNDROME” (THE UNIVERSITY OF TOKYO, priority 2012, published 2015).
# Entries after “also recorded” stand apart in the source; their conditions may differ. Ends that are not written are not given here.
# Legend:
# [1] = test system: Calf Thymus Histones on HUVEC; experiment: Cytotoxic assay: suppression of histone cytotoxicity on HUVEC; format: cell-based, human
# Experimental: After culturing for 1 hr in a medium concurrently containing 100 μg/mL Calf Thymus Histones and APC (200 nM), PTX3 (40 μg/mL), CRP (40 μg/mL) or SAP (40 μg/mL), the level of toxic activity was measured by FACS.
# (§1) Normal human umbilical vein endothelial cells (HUVECs) were cultured in EGM2 medium (Clonetics). The cells after culture were washed with PBS, added with Opti-MEM medium containing an product of incubation of activated protein C (APC), PTX3, C reactive protein (CRP) or Serum amyloid P component (SAP) with histone for 1 hr, and the cells were further cultured for 1 hr. Propidium iodide (PI) was added to the medium after culture at a final concentration of 10 μg/mL, and the cells were stained for 10 min. The cells were washed with PBS, detached and analyzed by flow cytometry.
# The histone cytotoxicity on HUVEC was evaluated by propidium iodide (PI) staining.
# Lastly, capacity of suppressing the cytotoxic activity of histone was confirmed. Since this experiment requires a certain amount of protein and an endotoxin-elimination as treatment, a protein was expressed and purified at a 500 mL culture scale, and subjected to an endotoxin-elimination treatment (FIG. 18). In the case of PTX3 N-terminal domain, about 10 mg was obtained at a 500 mL culture scale, and a loss by the endotoxin-elimination treatment was scarcely observed. […] A capacity of fragment proteins obtained at a 500 mL scale on HUVEC to suppress histone cytotoxicity was studied. […] In consideration of the experiments relating to the binding and aggregation, all fragments were considered to possibly have a certain level of suppressive capacity.
# histone H4 on HUVEC = experiment: as above; format: cell-based, human
# Experimental: as §1
# Using each recombinant histone instead of Calf Thymus Histones, a suppressive effect of full-length PTX3 or the N-terminal domain of PTX3 on histone cytotoxicity was studied in the same manner.
# Lastly, capacity of suppressing the cytotoxic activity of histone was confirmed. Since this experiment requires a certain amount of protein and an endotoxin-elimination as treatment, a protein was expressed and purified at a 500 mL culture scale, and subjected to an endotoxin-elimination treatment (FIG. 18). In the case of PTX3 N-terminal domain, about 10 mg was obtained at a 500 mL culture scale, and a loss by the endotoxin-elimination treatment was scarcely observed. […] A capacity of fragment proteins obtained at a 500 mL scale on HUVEC to suppress histone cytotoxicity was studied. […]
# Calf Thymus Histones = experiment: Aggregation with histone, absorbance at 310 nm; format: binding; details: mixture with Calf Thymus Histones
# Experimental: The lower left figure and the lower right figure show the measurement results of absorbance at 310 nm of a mixture of a wild-type or oligomer formation capacity-deficient mutant of PTX3 N-terminal domain having each concentration and 0.1 mg/mL Calf Thymus Histones at 1:1 vol.
# The aggregation activity of PTX3 and other pentraxins to histone was evaluated. Calf Thymus Histones (50 μg/mL) were mixed with a PTX3 fragment or the other pentraxin at each concentration, and the absorbance at the wavelength of 310 nm was measured. Before mixing, samples were dialyzed against 4 mM CaCl2-containing TBS.
Substance,capacity to suppress cytotoxicity of bovine thymus-derived histone on HUVEC [1],capacity to suppress cytotoxicity of recombinant histone H4 on HUVEC (histone H4 on HUVEC),"aggregation with Calf Thymus Histones, absorbance at 310 nm (Calf Thymus Histones)","suppression of toxic activity of Calf Thymus Histones on HUVEC ([1]; 100 μg/mL Calf Thymus Histones, 40 μg/mL protein, 1 hr, PI staining, FACS)"
"PTXN18: E. coli-expressed fragment of about 50 amino acids of PTX3 N-terminal domain with His-tag and TEV sequence, probably amino acids 18-67 (ENLYFQGENSDDYDLMYVNLDNEIDNGLHPTEDPTPCDCGQEHSEWDKLFIMLENSQ; not fully specified; cysteine pairing not given here)",almost equivalent to that of the PTX3 N-terminal domain,almost equivalent to that of the PTX3 N-terminal domain,–,–
"SAP: Serum amyloid P component, short pentraxin used as comparator [reference compound]",–,–,no aggregation capacity; also recorded: scarcely showed an aggregation activity,do not have such suppressive effect
